Test results as given in IntAct's records for PubMed 23559067.

B1: X-linked retinitis pigmentosa GTPase regulator (Homo sapiens), Q92834 (parent)
chain: MREPEELMPDSGAVFTFGKSKFAENNPGKFWFKNDVPVHLSCGDEHSAVVTGNNKLYMFGSNNWGQLGLGSKSAISKPTCVKALKPEKVKLAACGRNHTLVSTEGGNVYATGGNNEGQLGLGDTEERNTFHVISFFTSEHKIKQLSAGSNTSAALTEDGRLFMWGDNSEGQIGLKNVSNVCVPQQVTIGKPVSWISCGYYHSAFVTTDGELYVFGEPENGKLGLPNQLLGNHRTPQLVSEIPEKVIQVACGGEHTVVLTENAVYTFGLGQFGQLGLGTFLFETSEPKVIENIRDQTISYISCGENHTALITDIGLMYTFGDGRHGKLGLGLENFTNHFIPTLCSNFLRFIVKLVACGGCHMVVFAAPHRGVAKEIEFDEINDTCLSVATFLPYSSLTSGNVLQRTLSARMRRRERERSPDSFSMRRTLPPIEGTLGLSACFLPNSVFPRCSERNLQESVLSEQDLMQPEEPDYLLDEMTKEAEIDNSSTVESLGETTDILNMTHIMSLNSNEKSLKLSPVQKQKKQQTIGELTQDTALTENDDSDEYEEMSEMKEGKACKQHVSQGIFMTQPATTIEAFSDEEVGNDTGQVGPQADTDGEGLQKEVYRHENNNGVDQLDAKEIEKESDGGHSQKESEAEEIDSEKETKLAEIAGMKDLREREKSTKKMSPFFGNLPDRGMNTESEENKDFVKKRESCKQDVIFDSERESVEKPDSYMEGASESQQGIADGFQQPEAIEFSSGEKEDDEVETDQNIRYGRKLIEQGNEKETKPIISKSMAKYDFKCDRLSEIPEEKEGAEDSKGNGIEEQEVEANEENVKVHGGRKEKTEILSDDLTDKAEDHEFSKTEELKLEDVDEEINAENVESKKKTVGDDESVPTGYHSKTEGAERTNDDSSAETIEKKEKANLEERAICEYNENPKGYMLDDADSSSLEILENSETTPSKDMKKTKKIFLFKRVPSINQKIVKNNNEPLPEIKSIGDQIILKSDNKDADQNHMSQNHQNIPPTNTERRSKSCTIL
B2: Retinal rod rhodopsin-sensitive cGMP 3',5'-cyclic phosphodiesterase subunit delta (Homo sapiens), O43924 (parent)
chain: MSAKDERAREILRGFKLNWMNLRDAETGKILWQGTEDLSVPGVEHEARVPKKILKCKAVSRELNFSSTEQMEKFRLEQKVYFKGQCLEEWFFEFGFVIPNSTNTWQSLIEAAPESQMMPASVLTGNVIIETKFFDDDLLVSTSRVRLFYV
partner: B1 chain

Variants of: B1
Conditions: with pde6d_human PDE6D, O43924

Row | Variant | effect of a mutation on the interaction
1 | E216R | disrupting interaction

Variants of: B2
Conditions: with rpgr_human RPGR, Q92834

Row | Variant | effect of a mutation on the interaction
2 | R48E | disrupting interaction
